B1: cyno IL-33 N-His (ligand)
chain: MGSSHHHHHHSSGLVPRGSHMSITGISPITESLASLSTYNDQSITFALEDESYEIYVEDLKKDKKKDKVLLSYYESQHPSSESGDGVDGKMLMVTLSPTKDFWLQANNKEHSVELHKCEKPLPDQAFFVLHNRSFNCVSFECKTDPGVFIGVKDNHLALIKVDYSENLGSENILFKLSET
B3: human IL-33 (R&D Systems, #3625-IL-010/CF) (ligand, UniProt O95760 112-270, looked up)
chain: SITGISPITEYLASLSTYNDQSITFALEDESYEIYVEDLKKDEKKDKVLLSYYESQHPSNESGDGVDGKMLMVTLSPTKDFWLHANNKEHSVELHKCEKPLPDQAFFVLHNMHSNCVSFECKTDPGVFIGVKDNHLALIKVDSSENLCTENILFKLSET

The target of assay [1] is T1, human ST2L on HEK-BLUE IL-33/IL-1beta cells (human, UniProt Q01638 19-556).
T1 sequence: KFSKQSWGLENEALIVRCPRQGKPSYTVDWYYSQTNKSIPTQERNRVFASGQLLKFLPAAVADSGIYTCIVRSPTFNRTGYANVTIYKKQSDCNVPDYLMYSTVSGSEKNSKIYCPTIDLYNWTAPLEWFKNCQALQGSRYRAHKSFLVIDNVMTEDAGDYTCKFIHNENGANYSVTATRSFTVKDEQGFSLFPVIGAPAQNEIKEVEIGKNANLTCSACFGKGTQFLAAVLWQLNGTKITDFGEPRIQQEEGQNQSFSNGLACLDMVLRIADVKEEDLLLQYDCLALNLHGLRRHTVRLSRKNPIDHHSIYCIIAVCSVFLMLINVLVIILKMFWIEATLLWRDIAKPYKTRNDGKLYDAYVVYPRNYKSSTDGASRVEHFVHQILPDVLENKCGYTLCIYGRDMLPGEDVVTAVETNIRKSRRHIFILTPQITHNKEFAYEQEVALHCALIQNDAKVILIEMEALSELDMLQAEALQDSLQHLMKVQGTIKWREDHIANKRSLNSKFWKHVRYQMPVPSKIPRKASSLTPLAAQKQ
As to the kind of experiment: cell-based or functional assay.

Assay [2] has as its target B3. Description: cell-based or functional assay.
Assay [3] addresses B3. Description: cell-based or functional assay. The source holds these as a separate data set.
Assay [4] has as its target B3. As to the kind of experiment: cell-based or functional assay. The source holds these as a separate data set.
Assay [5] has as its target B3. As to the kind of experiment: SPR Biacore T200, 37 C. The method in brief:
(§1)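 Antibodies captured via anti-Fc on CM5 chip; IL-33 injected at 3.7–100 nM (three-fold series), 4 min association, 10 min dissociation, 30 μl/min, ADA pH 7.4 buffer with 0.15 M NaCl, EDTA, Tween-20, at 25 °C or 37 °C. KD = koff/kon from 1:1 Langmuir fit; t1/2 = ln(2)/(60*koff).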

Assay [6] has as its target B1. As to the kind of experiment: SPR Biacore T200, 37 C. In short, it runs like this:
as §1
(In general: Surface plasmon resonance follows binding to a sensor surface in real time, without labels.)

Assay [7] addresses B3. As to the kind of experiment: SPR Biacore T200, 25 C. In short, it runs like this:
as §1

Assay [8] addresses B1. As to the kind of experiment: SPR Biacore T200, 25 C. In short, it runs like this: as §1
A further assay deals with T2, biotinylated human IL-33 (human, UniProt O95760 112-270, biotin-labeled with EZ-LINK NHS-PEG4-Biotin).
T2 construct: also called biotin-huIL-33
T2 sequence (looked up): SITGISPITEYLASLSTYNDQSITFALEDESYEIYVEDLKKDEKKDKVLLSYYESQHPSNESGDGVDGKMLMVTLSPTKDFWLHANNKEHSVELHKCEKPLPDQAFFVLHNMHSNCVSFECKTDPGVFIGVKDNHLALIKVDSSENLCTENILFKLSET
Description: competitive ELISA, biotin-huIL-33 to coated hST2-Fc. As to the method: The ability of the anti-IL-33 antibody 10C12.38.H6.87Y.58I IgG4 and each anti-IL-33 antibody listed in Table 5 (RG1-RG20) to block either human IL-33 or cyno IL-33 binding to human ST2 receptor was tested in a competitive binding ELISA. Briefly, 1 μg/ml of recombinant human ST2-Fc chimera protein prepared in coating buffer (50 mM sodium carbonate, pH 9.6) was coated on a 384-well MAXISORP® plate (Nalgene Nunc International; Rochester, N.Y.) and incubated overnight at 4° C. On the next day, non-specific binding was blocked with PBS containing 0.5% (w/v) solution of bovine serum albumin (BSA). Fixed concentrations of biotinylated human or cyno IL-33 prepared in assay buffer (25 mM PBS, pH 7.2, 0.1% BSA, 0.05% TWEEN®-20) were mixed with an equal volume of serially-diluted anti-IL-33 antibodies or assay buffer alone and incubated for 1 h at room temperature. The final assay concentrations of biotinylated human IL-33 or cyno IL-33 were 20 pM and 45 pM, respectively, and the final assay concentration of each antibody ranged from 0-300 nM. The pre-mixed solutions were added to the ST2-Fc coated plate and incubated for 1 h at room temperature. The binding of biotinylated IL-33 to coated ST2-Fc was detected by the sequential addition of Streptavidin Poly-HRP80 (Fitzgerald; Buckinghamshire, UK) and 3,3′,5,5′-tetramethyl benzidine (TMB) Microwell Peroxidase Substrate System (KPL; Gaithersburg, Md.). The absorbance (450 nm) was recorded using a […] ASCENT® plate reader (Thermo Scientific; Rockford, Ill.). The binding activity (%) of biotin-IL-33 to ST2 in the presence of anti-IL-33 was plotted as a function of antibody concentration. The data generated were fitted to a four-parameter equation to determine IC₅₀ values for each antibody (FIGS. 25A and 25B) using Prism software (Graphpad Software; La Jolla, Calif.). The maximum blocking (%) of each antibody was calculated as the ratio of the reduction in signal measured in the presence of antibody relative to the difference between the signal with IL-33 alone and background measurements.
A general note: An ELISA detects its analyte on a solid surface through an enzyme-linked reagent.

In the next assay the target is T3, biotinylated cyno IL-33 (cynomolgus monkey, UniProt A0A2K5W3I1 112-269, biotin-labeled with EZ-LINK NHS-PEG4-Biotin).
T3 construct: also called biotin-cyIL-33
T3 sequence: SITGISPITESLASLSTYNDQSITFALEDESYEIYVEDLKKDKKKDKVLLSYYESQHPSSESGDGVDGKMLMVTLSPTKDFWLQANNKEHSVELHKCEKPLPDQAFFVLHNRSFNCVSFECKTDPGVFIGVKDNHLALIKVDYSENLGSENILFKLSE
As to the kind of experiment: competitive ELISA, biotin-cyIL-33 to coated hST2-Fc. The method in brief:
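Recombinant human ST2-Fc coated at 1 μg/ml; biotin-IL-33 (final 20 pM human, 45 pM cyno) premixed 1 h RT with serially diluted antibody (0–300 nM final), then bound to ST2-Fc 1 h RT. Streptavidin-polyHRP/TMB, A450; IC₅₀ from four-parameter fit, max blocking relative to IL-33-alone signal minus background.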

The target of assay [9] is B3. Description: cell-based or functional assay. The source holds these as a separate data set.
The target of assay [10] is B3. Description: cell-based or functional assay. This is another data set of the same source.
The target in assay [11] is B3. Description: cell-based or functional assay. This is another data set of the same source.
For assay [12], the target named is T1, human ST2L on HEK-BLUE IL-33/IL-1beta …. Description: cell-based or functional assay. This is another data set of the same source.

Like-named read-outs stand apart in the source and are kept apart here.

Turning to B1, the “EC50 (SEAP reporter OD 620, HEK-BLUE IL-33/IL-1beta cells)” value in [1] was 0.004 nM.

B2: H4H9640P (antibody, IgG4, V domains shown)
VH: QVQLQESGPGLVKPSETLSLTCTVSGGSISSYYWSWIRQPPGKGLELIGYIYYSGSTNYNPSLKSRVTISVDTSKNHFSLKLSSVTAADTAVYYCARSQYTSSWYGSFDIWGQGTMVTVSS
VL: DIQMTQSPSSVSASVGDRVTITCRASQGISTWLAWFQQKPGKAPKLLIYAASTLQGGVPSRFSGSGSGPEFTLTISSLQPEDFATYYCQQANSFPWTFGQGTKVEIK
notes: also called RG6
A word on the Kd: it is a measure of binding affinity in units of concentration. Higher therefore signals lower affinity. For orientation: koff means a measure of how fast the partners let go of each other. Broadly, the kon is the second-order rate constant of association. Read a high kon as faster complex formation. The term IC50 denotes the point on the concentration scale where inhibition reaches its midpoint. Consider B2, for which the “Ph-p38 MFI at 0.4 nM Ab (500 pM human IL-33, primary basophils)” value in assay [2] amounted to 99 MFI. The “IC50, IL-33-induced phospho-p38 in primary human basophils, 500 pM hIL-33” value in assay [3] worked out at 3.9e-13 M. For the same molecule, the “IC50; IFN-gamma ELISA, primary human NK cells, 260 pM hIL-33 + IL-12” value in assay [4] came out at 2.4e-09 M. In assay [5], this molecule had a Kd of 0.359 nM, an off-rate constant (koff) of 0.000626 s⁻¹, an on-rate constant (kon) of 1.74e+06 M⁻¹ s⁻¹ and a t1/2 of 18 min. In the assay with cyno IL-33 N-His [6], this molecule came in with a Kd of 4.2 nM, a koff of 0.0392 s⁻¹, a kon of 9.34e+06 M⁻¹ s⁻¹ and a t1/2 of 0 h. In assay [7], binding was characterised by a dissociation constant (Kd) of 0.549 nM, the koff amounted to 0.000438 s⁻¹, the kon turned out to be 797000 M⁻¹ s⁻¹ and the t1/2 turned out to be 26 min. Also, in the assay with cyno IL-33 N-His [8], binding was put at a Kd of 2.17 nM, the koff was 0.000528 s⁻¹, the kon was determined as 244000 M⁻¹ s⁻¹ and the t1/2 came to 22 min. Also, in the assay with biotinylated human IL-33, the IC50 was determined as 0.19 nM and the “Maximum Blocking” value was determined as 80%. Also, in the assay with biotinylated cyno IL-33, the IC50 turned out to be 45 nM and the “Maximum Blocking” value is 25%. Moreover, the “IC50 (read off the curve)” value in assay [9] is ~0.0004 nM. In addition, the “IC50; SEAP reporter (OD 620), HEK-BLUE IL-33/IL-1beta cells, 10 pM hIL-33” value in [10] worked out at 6.1e-10 M. In addition, in assay [11], the “Ph-p38 MFI at 2 nM Ab (500 pM human IL-33, primary basophils)” value worked out at 52 MFI.
As to B3, the “EC50 (SEAP reporter OD 620, HEK-BLUE IL-33/IL-1beta cells)” value in assay [12] came out at 0.0055 nM.

The values above are taken from patent US20190092852A1 (Genentech, published 2019).
